In US20240199746A1 (published 2024):

T1: Ax1 protein, extracellular domain (human, UniProt P30530 26-451)
T1 construct: extracellular domain; also called Axl; Ark
T1 sequence (looked up): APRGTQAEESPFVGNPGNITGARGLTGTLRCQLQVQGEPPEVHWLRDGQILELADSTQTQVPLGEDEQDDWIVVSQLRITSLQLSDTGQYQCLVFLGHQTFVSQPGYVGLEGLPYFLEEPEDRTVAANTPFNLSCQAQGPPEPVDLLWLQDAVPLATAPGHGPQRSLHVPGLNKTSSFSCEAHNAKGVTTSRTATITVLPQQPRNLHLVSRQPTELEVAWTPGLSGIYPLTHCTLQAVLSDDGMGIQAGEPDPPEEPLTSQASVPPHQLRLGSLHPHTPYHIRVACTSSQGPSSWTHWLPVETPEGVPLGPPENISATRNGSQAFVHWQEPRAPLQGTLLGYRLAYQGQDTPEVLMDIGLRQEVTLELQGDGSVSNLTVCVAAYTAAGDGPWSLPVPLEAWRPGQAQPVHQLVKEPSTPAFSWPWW


Tests used:
[1] = target: T1, Ax1 protein, extracellular domain; assay: ELISA, mutant diluted 1:3
In short: (§1)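 Single-point-mutant antibody library from Comprehensive Positional Evolution, screened by ELISA for selective binding to the Ax1 extracellular domain at pH 6.0 over pH 7.4. Mutant antibodies tested at 1:3 and 1:9 dilutions.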

[2] = target: T1, Ax1 protein, extracellular domain; assay: ELISA, mutant diluted 1:9
In short: as §1

Binder	Affinity ELISA CPE mutant ratio (1:3, pH 6.0/7.4) [1]	Affinity ELISA CPE mutant ratio (1:9, pH 6.0/7.4) [2]
LC-P095W (antibody, V domains shown, CPE single point mutant) VH: EVQLVQSGAEVKKPGATVKISCKVSGYSFTGHTMNWIRQPPGKGLEWIGLIKPSNGGTSYNQKFKGRVTISADKSISTAYLQWSSLKASDTAMYYCAHGHYESYFAMDYWGQGTLVTVSS VL: DIQMTQSPSSLSASVGDRVTITCKASQDVSSAVAWYQQKPGQAPRLLIYWASTRHTGVPSRFSGSGSGTEFTLTISSLQPDDFATYYCQEHFSTWLTFGQGTKVEIK	2.15	2.26
LC-V029G (antibody, V domains shown, CPE single point mutant) VH: EVQLVQSGAEVKKPGATVKISCKVSGYSFTGHTMNWIRQPPGKGLEWIGLIKPSNGGTSYNQKFKGRVTISADKSISTAYLQWSSLKASDTAMYYCAHGHYESYFAMDYWGQGTLVTVSS VL: DIQMTQSPSSLSASVGDRVTITCKASQDGSSAVAWYQQKPGQAPRLLIYWASTRHTGVPSRFSGSGSGTEFTLTISSLQPDDFATYYCQEHFSTPLTFGQGTKVEIK	1.94	1.8
LC-V029D (antibody, V domains shown, CPE single point mutant) VH: EVQLVQSGAEVKKPGATVKISCKVSGYSFTGHTMNWIRQPPGKGLEWIGLIKPSNGGTSYNQKFKGRVTISADKSISTAYLQWSSLKASDTAMYYCAHGHYESYFAMDYWGQGTLVTVSS VL: DIQMTQSPSSLSASVGDRVTITCKASQDDSSAVAWYQQKPGQAPRLLIYWASTRHTGVPSRFSGSGSGTEFTLTISSLQPDDFATYYCQEHFSTPLTFGQGTKVEIK	2.88	2.68
LC-T097I (antibody, V domains shown, CPE single point mutant) VH: EVQLVQSGAEVKKPGATVKISCKVSGYSFTGHTMNWIRQPPGKGLEWIGLIKPSNGGTSYNQKFKGRVTISADKSISTAYLQWSSLKASDTAMYYCAHGHYESYFAMDYWGQGTLVTVSS VL: DIQMTQSPSSLSASVGDRVTITCKASQDVSSAVAWYQQKPGQAPRLLIYWASTRHTGVPSRFSGSGSGTEFTLTISSLQPDDFATYYCQEHFSTPLIFGQGTKVEIK	3.09	4.05

Second part, the binder after the results:

Affinity ELISA CPE mutant ratio (1:3, pH 6.0/7.4) [1]	Affinity ELISA CPE mutant ratio (1:9, pH 6.0/7.4) [2]	Binder
2.31	2.35	LC-V029W (antibody, V domains shown, CPE single point mutant) VH: EVQLVQSGAEVKKPGATVKISCKVSGYSFTGHTMNWIRQPPGKGLEWIGLIKPSNGGTSYNQKFKGRVTISADKSISTAYLQWSSLKASDTAMYYCAHGHYESYFAMDYWGQGTLVTVSS VL: DIQMTQSPSSLSASVGDRVTITCKASQDWSSAVAWYQQKPGQAPRLLIYWASTRHTGVPSRFSGSGSGTEFTLTISSLQPDDFATYYCQEHFSTPLTFGQGTKVEIK
2.25	3.5	LC-W050F (antibody, V domains shown, CPE single point mutant) VH: EVQLVQSGAEVKKPGATVKISCKVSGYSFTGHTMNWIRQPPGKGLEWIGLIKPSNGGTSYNQKFKGRVTISADKSISTAYLQWSSLKASDTAMYYCAHGHYESYFAMDYWGQGTLVTVSS VL: DIQMTQSPSSLSASVGDRVTITCKASQDVSSAVAWYQQKPGQAPRLLIYFASTRHTGVPSRFSGSGSGTEFTLTISSLQPDDFATYYCQEHFSTPLTFGQGTKVEIK
2.6	2.65	LC-V029N (antibody, V domains shown, CPE single point mutant) VH: EVQLVQSGAEVKKPGATVKISCKVSGYSFTGHTMNWIRQPPGKGLEWIGLIKPSNGGTSYNQKFKGRVTISADKSISTAYLQWSSLKASDTAMYYCAHGHYESYFAMDYWGQGTLVTVSS VL: DIQMTQSPSSLSASVGDRVTITCKASQDNSSAVAWYQQKPGQAPRLLIYWASTRHTGVPSRFSGSGSGTEFTLTISSLQPDDFATYYCQEHFSTPLTFGQGTKVEIK
